Experimental data: publication PMC4330389, “Domain organization within the nuclear export factor Mex67:Mtr2 generates an extended mRNA binding surface”
Substitutions are numbered along the chain they refer to.

T1: Mex67ΔUBA L263Y+M265Y;Mtr2 (Saccharomyces cerevisiae;Saccharomyces …, UniProt Q99257;P34232 1-487;1-184, L263Y;M265Y|)
T1 sequence 1: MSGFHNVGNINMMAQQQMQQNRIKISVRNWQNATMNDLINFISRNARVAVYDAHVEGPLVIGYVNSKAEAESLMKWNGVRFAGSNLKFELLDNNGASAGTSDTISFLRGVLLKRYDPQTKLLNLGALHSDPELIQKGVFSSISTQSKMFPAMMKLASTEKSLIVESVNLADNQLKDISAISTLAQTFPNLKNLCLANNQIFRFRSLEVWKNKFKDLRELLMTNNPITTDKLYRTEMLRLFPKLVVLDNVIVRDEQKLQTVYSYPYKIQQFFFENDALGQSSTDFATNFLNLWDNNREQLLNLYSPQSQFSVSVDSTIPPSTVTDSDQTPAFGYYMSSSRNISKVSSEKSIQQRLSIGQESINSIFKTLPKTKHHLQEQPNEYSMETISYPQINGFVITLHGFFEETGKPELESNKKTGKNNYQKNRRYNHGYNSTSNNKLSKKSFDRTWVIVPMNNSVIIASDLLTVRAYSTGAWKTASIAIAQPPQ
T1 sequence 2: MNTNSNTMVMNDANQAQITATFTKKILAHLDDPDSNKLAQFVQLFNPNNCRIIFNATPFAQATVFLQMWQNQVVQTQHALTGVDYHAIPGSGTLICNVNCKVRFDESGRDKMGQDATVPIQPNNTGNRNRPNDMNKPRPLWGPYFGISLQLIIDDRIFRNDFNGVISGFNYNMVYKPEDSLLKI

T2: Mex67ΔUBA L263D+M265D;Mtr2 (Saccharomyces cerevisiae;Saccharomyces …, UniProt Q99257;P34232 1-487;1-184, L263D;M265D|)
T2 sequence 1: T1 sequence 1 with Y263D, Y265D
T2 sequence 2: T1 sequence 2

T3: Mex67ΔUBA;Mtr2 (Saccharomyces cerevisiae;Saccharomyces …, UniProt Q99257;P34232 1-487;1-184, |)
T3 sequence 1: T1 sequence 1 with Y263L, Y265M
T3 sequence 2: T1 sequence 2

T4: Mex67 (full length):Mtr2;Mtr2 (Saccharomyces cerevisiae;Saccharomyces …, UniProt Q99257;P34232 1-599;1-184, |)
T4 sequence 1: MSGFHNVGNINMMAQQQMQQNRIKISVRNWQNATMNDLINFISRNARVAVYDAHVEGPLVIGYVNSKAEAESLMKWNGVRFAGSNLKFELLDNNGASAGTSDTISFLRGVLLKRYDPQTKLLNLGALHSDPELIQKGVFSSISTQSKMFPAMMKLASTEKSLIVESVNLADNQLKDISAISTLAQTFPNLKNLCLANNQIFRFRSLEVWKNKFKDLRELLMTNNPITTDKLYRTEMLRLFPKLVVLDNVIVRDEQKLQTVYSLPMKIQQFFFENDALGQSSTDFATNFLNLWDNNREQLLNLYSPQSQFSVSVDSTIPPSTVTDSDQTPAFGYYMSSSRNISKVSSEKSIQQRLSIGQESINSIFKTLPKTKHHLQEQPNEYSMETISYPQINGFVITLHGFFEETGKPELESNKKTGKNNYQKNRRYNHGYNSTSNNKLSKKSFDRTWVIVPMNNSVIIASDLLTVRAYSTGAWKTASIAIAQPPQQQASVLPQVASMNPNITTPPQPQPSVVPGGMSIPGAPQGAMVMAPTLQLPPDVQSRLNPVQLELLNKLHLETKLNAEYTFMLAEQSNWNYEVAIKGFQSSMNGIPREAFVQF
T4 sequence 2: T1 sequence 2

T5: Mex67LRR-NTF2L;Mtr2 (Saccharomyces cerevisiae;Saccharomyces …, UniProt Q99257;P34232 101-487;1-184, |)
T5 sequence 1: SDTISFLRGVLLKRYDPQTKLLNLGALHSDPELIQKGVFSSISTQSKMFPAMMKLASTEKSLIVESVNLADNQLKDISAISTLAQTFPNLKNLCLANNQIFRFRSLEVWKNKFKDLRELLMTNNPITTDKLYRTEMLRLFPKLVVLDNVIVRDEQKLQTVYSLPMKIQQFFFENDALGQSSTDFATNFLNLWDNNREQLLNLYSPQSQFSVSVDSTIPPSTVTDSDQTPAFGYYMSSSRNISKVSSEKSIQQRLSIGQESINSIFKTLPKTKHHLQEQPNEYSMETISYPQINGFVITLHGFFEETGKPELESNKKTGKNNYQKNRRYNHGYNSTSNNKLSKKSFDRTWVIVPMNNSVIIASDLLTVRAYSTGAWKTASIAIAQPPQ
T5 sequence 2: T1 sequence 2

T6: Mex67ΔUBA L263A+M265A;Mtr2 (Saccharomyces cerevisiae;Saccharomyces …, UniProt Q99257;P34232 1-487;1-184, L263A;M265A|)
T6 sequence 1: T1 sequence 1 with Y263A, Y265A
T6 sequence 2: T1 sequence 2

T7: Mex67RRM-LRR (Saccharomyces cerevisiae, UniProt Q99257 2-262)
T7 sequence: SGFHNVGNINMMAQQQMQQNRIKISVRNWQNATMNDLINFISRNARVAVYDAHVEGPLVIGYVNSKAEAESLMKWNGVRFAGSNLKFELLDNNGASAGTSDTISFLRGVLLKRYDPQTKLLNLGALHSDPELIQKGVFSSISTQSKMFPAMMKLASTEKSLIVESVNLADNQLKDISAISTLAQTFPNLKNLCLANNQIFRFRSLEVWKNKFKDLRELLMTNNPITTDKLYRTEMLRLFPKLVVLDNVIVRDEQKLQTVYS

T8: Mex67NTF2L;Mtr2 (Saccharomyces cerevisiae;Saccharomyces …, UniProt Q99257;P34232 264-487;1-184, |)
T8 sequence 1: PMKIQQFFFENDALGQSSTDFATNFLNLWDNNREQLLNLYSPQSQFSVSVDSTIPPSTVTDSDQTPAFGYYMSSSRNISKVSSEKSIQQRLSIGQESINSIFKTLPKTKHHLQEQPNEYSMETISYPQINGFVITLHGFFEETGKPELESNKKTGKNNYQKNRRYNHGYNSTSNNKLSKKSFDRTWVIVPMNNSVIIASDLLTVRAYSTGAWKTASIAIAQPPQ
T8 sequence 2: T1 sequence 2


Experiments:
Assay in all cases: fluorescence anisotropy; 20 mM Tris pH 8.0, 50 mM NaCl, 10 nM DY-547 RNA; temperature not stated
[1] = biological target: T1, Mex67ΔUBA L263Y+M265Y;Mtr2; conditions: protein: recombinant;recombinant; tags: His6 removed by TEV;; copies: 1;1
[2] = biological target: T2, Mex67ΔUBA L263D+M265D;Mtr2; conditions: protein: recombinant;recombinant; tags: His6 removed by TEV;; copies: 1;1
Mex67ΔUBA;Mtr2 = biological target: T3, Mex67ΔUBA;Mtr2; conditions: protein: recombinant;recombinant; tags: His6 removed by TEV;; copies: 1;1
[3] = biological target: T4, Mex67 (full length):Mtr2;Mtr2; conditions: protein: recombinant;recombinant, tags: His6 removed by TEV;, copies: 1;1
Mex67LRR-NTF2L;Mtr2 = biological target: T5, Mex67LRR-NTF2L;Mtr2; conditions: protein: recombinant;recombinant; tags: His6 removed by TEV;; copies: 1;1
[4] = biological target: T6, Mex67ΔUBA L263A+M265A;Mtr2; conditions: protein: recombinant;recombinant; tags: His6 removed by TEV;; copies: 1;1
Mex67RRM-LRR = biological target: T7, Mex67RRM-LRR; conditions: protein: recombinant; tags: His6 removed by TEV
Mex67NTF2L;Mtr2 = biological target: T8, Mex67NTF2L;Mtr2; conditions: protein: recombinant;recombinant; tags: His6 removed by TEV;; copies: 1;1

Binder | Kd [1] | Kd [2] | Kd (Mex67ΔUBA;Mtr2) | Kd [3] | Kd (Mex67LRR-NTF2L;Mtr2) | Kd [4] | Kd (Mex67RRM-LRR) | Kd (Mex67NTF2L;Mtr2) | binding result ([3]; may form higher order structure)
AAAAAAAAAAAAAAA (ssRNA) [A15] | 420 nM | 820 nM | 310 nM | 260 nM | 340 nM | 640 nM | 12000 nM | 860 nM | –
GGGGGGGGGGGGGGG (ssRNA) [G15] | – | – | – | – | – | – | – | – | binds
